Measured values published in doi:10.1101/2024.12.03.626679, “Structure of the SMYD2-PARP1 Complex Reveals Both Productive and Allosteric Modes of Peptide Binding” (bioRxiv, 2024).

Legend:
SMYD2-L351A/W356A = SMYD2-L351A/W356A (human, UniProt Q9NRG4 1-433, L351A | W356A); test: cell-based or functional assay
[1] = target: T1, Full-length human SMYD2 (residues 1-433), wild type (human, UniProt Q9NRG4 1-433); test: ITC; NanoITC SV, 27°C, 25 mM Tris pH 7.5, 50 mM NaCl; 40 μM SMYD2 in the cell, 631 μM PARP1 peptide in the syringe, 16 injections of 15 μL; one-site, two-site and binding polynomial models; conditions: both partners purified
T1 construct: SMYD2, human, full length, residues 1-433; Tag cut off with yeast SUMO Protease 1, native N-terminus; Crystals held AdoHcy; also called SMYD2-WT; wild-type SMYD2; not shown: 6xHis-SUMO, N-terminal, cleaved
T1 sequence (Q9NRG4 whole entry, the tested form may be a part): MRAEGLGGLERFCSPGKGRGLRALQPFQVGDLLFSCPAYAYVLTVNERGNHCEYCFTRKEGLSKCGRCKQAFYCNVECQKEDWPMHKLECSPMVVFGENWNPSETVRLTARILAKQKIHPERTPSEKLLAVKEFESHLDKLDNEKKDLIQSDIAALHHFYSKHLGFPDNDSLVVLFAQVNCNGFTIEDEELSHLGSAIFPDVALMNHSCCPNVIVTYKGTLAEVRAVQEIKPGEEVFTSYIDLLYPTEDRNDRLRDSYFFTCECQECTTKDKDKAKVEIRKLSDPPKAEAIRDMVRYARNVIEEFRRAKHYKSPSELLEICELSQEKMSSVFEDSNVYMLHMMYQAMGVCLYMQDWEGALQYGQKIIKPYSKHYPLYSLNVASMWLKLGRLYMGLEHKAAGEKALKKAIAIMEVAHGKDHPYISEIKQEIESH

Sequence of SMYD2-L351A/W356A (Q9NRG4 whole entry L351A/W356A, the tested form may be a part): as the sequence (Q9NRG4 whole entry, the tested form may be a part) above, with L351A, W356A counted along it

B1: PARP1 peptide (13-residue synthetic peptide, human PARP1 residues 522-534) (peptide)
peptide: RMKLTLKGGAAVD
notes: PARP1, human, residues 522-534, holds the target lysine Lys528; also called Lys528-containing PARP1 peptide; source: synthetic peptide (CPC Scientific)
SMYD2-L351A/W356A
  KM of steady-state methyltransferase kinetics (MTase-Glo) with the PARP1 peptide as substrate, against wild-type SMYD2: 4 fold
[1]
  dH1 (binding polynomial): -1 kcal/mol
  dH2 (binding polynomial): -1.72 kcal/mol
  stoichiometry N: 2
